Data as given in IntAct's records for PubMed 31515488.

B1: Carbonyl reductase [NADPH] 3 (Homo sapiens), O75828 (parent)
chain: MSSCSRVALVTGANRGIGLAIARELCRQFSGDVVLTARDVARGQAAVQQLQAEGLSPRFHQLDIDDLQSIRALRDFLRKEYGGLNVLVNNAAVAFKSDDPMPFDIKAEMTLKTNFFATRNMCNELLPIMKPHGRVVNISSLQCLRAFENCSEDLQERFHSETLTEGDLVDLMKKFVEDTKNEVHEREGWPNSPYGVSKLGVTVLSRILARRLDEKRKADRILVNACCPGPVKTDMDGKDSIRTVEEGAETPVYLALLPPDATEPQGQLVHDKVVQNW
B2: Tripartite motif-containing protein 10 (Homo sapiens), Q9UDY6 (parent)
chain: MASAASVTSLADEVNCPICQGTLREPVTIDCGHNFCRACLTRYCEIPGPDLEESPTCPLCKEPFRPGSFRPNWQLANVVENIERLQLVSTLGLGEEDVCQEHGEKIYFFCEDDEMQLCVVCREAGEHATHTMRFLEDAAAPYREQIHKCLKCLRKEREEIQEIQSRENKRMQVLLTQVSTKRQQVISEFAHLRKFLEEQQSILLAQLESQDGDILRQRDEFDLLVAGEICRFSALIEELEEKNERPARELLTDIRSTLIRCETRKCRKPVAVSPELGQRIRDFPQQALPLQREMKMFLEKLCFELDYEPAHISLDPQTSHPKLLLSEDHQRAQFSYKWQNSPDNPQRFDRATCVLAHTGITGGRHTWVVSIDLAHGGSCTVGVVSEDVQRKGELRLRPEEGVWAVRLAWGFVSALGSFPTRLTLKEQPRQVRVSLDYEVGWVTFTNAVTREPIYTFTASFTRKVIPFFGLWGRGSSFSLSS
B3: TBC1 domain family member 22B (Homo sapiens), Q9NU19 (parent)
chain: MAAENSKQFWKRSAKLPGSIQPVYGAQHPPLDPRLTKNFIKERSKVNTVPLKNKKASSFHEFARNTSDAWDIGDDEEEDFSSPSFQTLNSKVALATAAQVLENHSKLRVKPERSQSTTSDVPANYKVIKSSSDAQLSRNSSDTCLRNPLHKQQSLPLRPIIPLVARISDQNASGAPPMTVREKTRLEKFRQLLSSQNTDLDELRKCSWPGVPREVRPITWRLLSGYLPANTERRKLTLQRKREEYFGFIEQYYDSRNEEHHQDTYRQIHIDIPRTNPLIPLFQQPLVQEIFERILFIWAIRHPASGYVQGINDLVTPFFVVFLSEYVEEDVENFDVTNLSQDMLRSIEADSFWCMSKLLDGIQDNYTFAQPGIQKKVKALEELVSRIDEQVHNHFRRYEVEYLQFAFRWMNNLLMRELPLRCTIRLWDTYQSEPEGFSHFHLYVCAAFLIKWRKEILDEEDFQGLLMLLQNLPTIHWGNEEIGLLLAEAYRLKYMFADAPNHYRR
partner: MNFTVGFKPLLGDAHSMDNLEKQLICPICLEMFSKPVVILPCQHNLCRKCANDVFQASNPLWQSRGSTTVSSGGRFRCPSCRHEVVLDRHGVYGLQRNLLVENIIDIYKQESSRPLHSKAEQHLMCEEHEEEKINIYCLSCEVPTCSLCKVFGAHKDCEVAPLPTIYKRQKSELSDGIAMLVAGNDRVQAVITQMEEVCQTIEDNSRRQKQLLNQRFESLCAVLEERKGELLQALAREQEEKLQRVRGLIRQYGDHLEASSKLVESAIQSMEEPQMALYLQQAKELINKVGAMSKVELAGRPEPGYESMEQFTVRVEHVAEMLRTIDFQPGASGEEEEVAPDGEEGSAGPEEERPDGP
B4: Melanoma-associated antigen 8 (Homo sapiens), P43361 (parent)
chain: MLLGQKSQRYKAEEGLQAQGEAPGLMDVQIPTAEEQKAASSSSTLIMGTLEEVTDSGSPSPPQSPEGASSSLTVTDSTLWSQSDEGSSSNEEEGPSTSPDPAHLESLFREALDEKVAELVRFLLRKYQIKEPVTKAEMLESVIKNYKNHFPDIFSKASECMQVIFGIDVKEVDPAGHSYILVTCLGLSYDGLLGDDQSTPKTGLLIIVLGMILMEGSRAPEEAIWEALSVMGLYDGREHSVYWKLRKLLTQEWVQENYLEYRQAPGSDPVRYEFLWGPRALAETSYVKVLEHVVRVNARVRISYPSLHEEALGEEKGV
B5: Beta-taxilin (Homo sapiens), Q8N3L3 (parent)
chain: MEANHSEQLSAERQSTPPGDSSSLPSHNGLEKEDGQDSPTPVQPPEKEASVHPDISEELNRQLEDIINTYGSAASTAGKEGSARASEQPENAESPDNEDGDCEETTEEAGREPVASGEPPTVKEPVSNKEQKLEKKILKGLGKEANLLMQNLNKLQTPEEKFDFLFKKYAELLDEHRTEQKKLKLLQKKQVQIQKEKDQLQGEHSRAILARSKLESLCRELQRHNKTLKEEALQRAREEEEKRKEITSHFQSTLTDIQGQIEQQSERNMKLCQENTELAEKLKSIIDQYELREEHLDKIFKHRELQQKLVDAKLEQAQEMMKEAEERHKREKEYLLNQAAEWKLQAKVLKEQETVLQAQLTLYSGRFEEFQSTLTKSNEVFATFKQEMDKTTKKMKKLEKDTATWKARFENCNKALLDMIEEKALRAKEYECFVMKIGRLENLCRALQEERNELHKKIRDAEISEKDDQSQHNSDEEPESNVSVDQEIDAEEVNSVQTAVKNLATAFMIIHHPESTPHQSKETQPEIGSSQESADAALKEPEQPPLIPSRDSESPLPPLTPQAEAEGGSDAEPPSKASNSPAGLGAETQCEGLPVGAQADQASWKPEAEASGQAPQAPTEASLQKMEADVPAPACAAEEHVAAMVPACEPSRQPPRAAAEELPVGASAGPQPRNVADTNLEGVD
partner: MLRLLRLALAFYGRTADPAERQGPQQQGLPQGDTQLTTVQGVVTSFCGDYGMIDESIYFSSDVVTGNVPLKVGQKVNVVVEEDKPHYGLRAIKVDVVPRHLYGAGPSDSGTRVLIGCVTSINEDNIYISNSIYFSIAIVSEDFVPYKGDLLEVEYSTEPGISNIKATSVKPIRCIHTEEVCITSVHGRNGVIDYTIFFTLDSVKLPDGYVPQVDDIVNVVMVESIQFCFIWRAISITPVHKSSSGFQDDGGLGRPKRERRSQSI

Variants of: B1
Conditions: with sdcb1_human SDCBP

| Variant | effect of a mutation on the interaction |
| --- | --- |
| MSSCSRVALVTGANRGIGLAIARELCRQFSGDVVLTARDVARGQAAVQQLQAEGLSPRFHQLDIDDLQSIRALRDFLRKEYGGLNVLVNNAAVAFKSDDPMPFDIKAEMTLKTNFFATRNMCNELLPIMKSHGRVVNISSLQCLRAFENCSEDLQERFHSETLTEGDLVDLMKKFVEDTKNEVHEREGWPNSPYGVSKLGVTVLSRILARRLDEKRKADRILVNACCPGPVKTDMDGKDSIRTVEEGAETPVYLALLPPDATEPQGQLVHDKVVQNW [P131S] | with no effect |
| MSSCSRVALVTGANRGIGLAIARELCRQFSGDVVLTARDVARGQAAVQQLQAEGLSPRFHQLDIDDLQSIRALRDFLRKEYGGLNVLVNNAAVAFKSDDPMPFDIKAEMTLKTNFFATRNMCNELLPIMKPHGRVVNISSLQCLRAFENCSEDLQERFHSETLTEGDLVDLMKKFVEDTKNEVHEREGWPNSPYGVSKLGVTVLSRILARRLDEKRKADRILVNACCPGPVKTDMDGKDSIRTMEEGAETPVYLALLPPDATEPQGQLVHDKVVQNW [V244M] | with no effect |

Variants of: B2
Conditions: with psa1_human PSMA1, P25786
Sequence of psa1_human PSMA1, P25786 (P25786 whole entry): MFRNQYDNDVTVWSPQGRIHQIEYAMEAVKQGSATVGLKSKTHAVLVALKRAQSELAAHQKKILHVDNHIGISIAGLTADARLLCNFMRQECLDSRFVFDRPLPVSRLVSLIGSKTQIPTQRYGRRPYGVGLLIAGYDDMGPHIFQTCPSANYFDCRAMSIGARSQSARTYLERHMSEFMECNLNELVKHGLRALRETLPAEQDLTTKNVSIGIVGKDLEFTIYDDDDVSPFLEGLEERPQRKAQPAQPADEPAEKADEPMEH

| Variant | effect of a mutation on the interaction |
| --- | --- |
| MASAASVTSLADEVNCPICQGTLREPVTIDCGHNFCRACLTRYCEIPGPDLEESPTCPLCKEPFHPGSFRPNWQLANVVENIERLQLVSTLGLGEEDVCQEHGEKIYFFCEDDEMQLCVVCREAGEHATHTMRFLEDAAAPYREQIHKCLKCLRKEREEIQEIQSRENKRMQVLLTQVSTKRQQVISEFAHLRKFLEEQQSILLAQLESQDGDILRQRDEFDLLVAGEICRFSALIEELEEKNERPARELLTDIRSTLIRCETRKCRKPVAVSPELGQRIRDFPQQALPLQREMKMFLEKLCFELDYEPAHISLDPQTSHPKLLLSEDHQRAQFSYKWQNSPDNPQRFDRATCVLAHTGITGGRHTWVVSIDLAHGGSCTVGVVSEDVQRKGELRLRPEEGVWAVRLAWGFVSALGSFPTRLTLKEQPRQVRVSLDYEVGWVTFTNAVTREPIYTFTASFTRKVIPFFGLWGRGSSFSLSS [R65H] | with no effect |

Variants of: B3
Conditions: with tri54_human TRIM54, Q9BYV2

| Variant | effect of a mutation on the interaction |
| --- | --- |
| MAAENSKQFWKRSAKLPGSIQPVYGAQHPPLDPRLTKNFIKERSKVNTVPLKNKKASSFHEFARNTSDAWDIGDDEEEDFSSPSFQTLNSKVALATAAQVLENHSKLRVKPERSQSTTSDVPANYKVIKSSSDAQLSRNSSDTCLRNPLHKQQSLPLRPIIPLVARISDQNASGAPAMTVREKTRLEKFRQLLSSQNTDLDELRKCSWPGVPREVRPITWRLLSGYLPANTERRKLTLQRKREEYFGFIEQYYDSRNEEHHQDTYRQIHIDIPRTNPLIPLFQQPLVQEIFERILFIWAIRHPASGYVQGINDLVTPFFVVFLSEYVEEDVENFDVTNLSQDMLRSIEADSFWCMSKLLDGIQDNYTFAQPGIQKKVKALEELVSRIDEQVHNHFRRYEVEYLQFAFRWMNNLLMRELPLRCTIRLWDTYQSEPEGFSHFHLYVCAAFLIKWRKEILDEEDFQGLLMLLQNLPTIHWGNEEIGLLLAEAYRLKYMFADAPNHYRR [P177A] | with no effect |

Variants of: B4
Conditions: with bex5_human BEX5, Q5H9J7
Sequence of bex5_human BEX5, Q5H9J7 (Q5H9J7 whole entry): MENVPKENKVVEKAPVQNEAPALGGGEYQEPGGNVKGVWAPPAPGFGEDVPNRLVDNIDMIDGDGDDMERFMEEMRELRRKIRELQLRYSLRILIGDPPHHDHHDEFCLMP

| Variant | effect of a mutation on the interaction |
| --- | --- |
| MLLGQKSQCYKAEEGLQAQGEAPGLMDVQIPTAEEQKAASSSSTLIMGTLEEVTDSGSPSPPQSPEGASSSLTVTDSTLWSQSDEGSSSNEEEGPSTSPDPAHLESLFREALDEKVAELVRFLLRKYQIKEPVTKAEMLESVIKNYKNHFPDIFSKASECMQVIFGIDVKEVDPAGHSYILVTCLGLSYDGLLGDDQSTPKTGLLIIVLGMILMEGSRAPEEAIWEALSVMGLYDGREHSVYWKLRKLLTQEWVQENYLEYRQAPGSDPVRYEFLWGPRALAETSYVKVLEHVVRVNARVRISYPSLHEEALGEEKGV [R9C] | with no effect |
| MLLGQKSQRYKAEEGLQAQGEAPGLMDVQIPTAEEQKAASSSSTLIMGTLEEVTDSGSPSPPQSPEGASSSLTVTDSTLWSQSDEGSSSNEEEGPSTSPDPAHLESLFREALDEKVAELVHFLLRKYQIKEPVTKAEMLESVIKNYKNHFPDIFSKASECMQVIFGIDVKEVDPAGHSYILVTCLGLSYDGLLGDDQSTPKTGLLIIVLGMILMEGSRAPEEAIWEALSVMGLYDGREHSVYWKLRKLLTQEWVQENYLEYRQAPGSDPVRYEFLWGPRALAETSYVKVLEHVVRVNARVRISYPSLHEEALGEEKGV [R121H] | with no effect |

Variants of: B5
Conditions: with ct55_human CT55, Q8WUE5

| Variant | effect of a mutation on the interaction |
| --- | --- |
| T523I | with no effect |
